In data set [1] the target is T1, cytochrome c (Cc), recombinant (human, UniProt P99999 1-105, heme group; 15N-labelled for the 2D NMR titrations).
T1 construct: Met80 is M81 in P99999); Reduced with sodium ascorbate in the NMR experiments; also called hemeprotein; reduced Cc; source: E. coli BL21 (DE3), purified (ionic chromatography, carboxy-methylcellulose)
Put plainly: ITC; Auto-ITC200, 25 °C; 2-μL injections of 300 μM Cc into the cell with 20 μM 14-3-3ε species or peptide; 10 mM sodium phosphate pH 7.4. The following applies: both partners purified.

Data set [2] has as its target T1, cytochrome c (Cc), recombinant. As to the kind of experiment: NMR titration; 1D 19F NMR of the fluorinated 14-3-3ε_(234-255) peptide titrated with Cc or BSA; 25 °C; 600 MHz; 10 mM sodium phosphate pH 6.3. The following applies: both partners purified.
Data set [3] deals with the molecule itself. As to the kind of experiment: AUC + other: dynamic light scattering; sedimentation velocity, 20 °C, 45,000 r.p.m., 37 μM, 5 mM sodium phosphate pH 6.3; DLS at 0.1 mg/mL, 25 °C, same buffer.
Data set [4] addresses T1, cytochrome c (Cc), recombinant. Put plainly: NMR titration; 50 μM reduced 15N-labelled Cc titrated with unlabeled 14-3-3ε FL (700 MHz) or 14-3-3ε_(234-255) peptide (600 MHz); 1D 1H and 2D [1H,15N] HSQC; 25 °C; 5 mM sodium phosphate pH 6.3, 0.1 M sodium ascorbate; CSP curves fitted with a one-site model. The following applies: both partners purified.

No end group written: not given here.

T1 sequence (P99999 whole entry): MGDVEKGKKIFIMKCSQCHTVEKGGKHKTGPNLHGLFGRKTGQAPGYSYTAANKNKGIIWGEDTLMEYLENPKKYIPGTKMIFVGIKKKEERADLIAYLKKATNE

B1: acetylated 14-3-3ε_(234-255) peptide (peptide, UniProt P62258 234-255, looked up)
peptide: Ac-DMQGDGEEQNKEALQDVEDENQ
notes: 14-3-3ε, C-terminal tail, residues 234-255, N-terminally acetylated; also called acetylated peptide
Take B1: in data set [1], the binding result is listed as “binds”.

B2: fluorinated 14-3-3ε_(234-255) peptide (Lys244 covalently bound to 5-fluorindole) (peptide, UniProt P62258 234-255, looked up)
peptide: Ac-DMQGDGEEQNK(5‑fluorindole)EALQDVEDENQ
notes: 14-3-3ε, C-terminal tail, residues 234-255; source: acetylated 14-3-3ε_(234-255) peptide conjugated with 5-fluoroindole (formaldehyde, 24 h, 30 °C), dialyzed
As to B2, in data set [2], the binding result is given as “binds”.

B3: 14-3-3ε FL D21K (natural protein, UniProt P62258 1-255, looked up)
chain: MDDREDLVYQAKLAEQAERYKEMVESMKKVAGMDVELTVEERNLLSVAYKNVIGARRASWRIISSIEQKEENKGGEDKLKMIREYRQMVETELKLICCDILDVLDKHLIPAANTGESKVFYYKMKGDYHRYLAEFATGNDRKEAAENSLVAYKAASDIAMTELPPTHPIRLGLALNFSVFYYEILNSPDRACRLAKAAFDDAIAELDTLSEESYKDSTLIMQLLRDNLTLWTSDMQGDGEEQNKEALQDVEDENQ
notes: 14-3-3ε full length with D21K; source: E. coli BL21 (DE3), purified (Ni Sepharose); mutant obtained from Mutagenex Inc
For the molecule B3, the stoichiometry N (as a rule, the number of molecules, sites or subunits per partner or assembly) in data set [3] amounted to 2.

B4: 14-3-3ε FL E92K (natural protein, UniProt P62258 1-255, looked up)
chain: MDDREDLVYQAKLAEQAERYDEMVESMKKVAGMDVELTVEERNLLSVAYKNVIGARRASWRIISSIEQKEENKGGEDKLKMIREYRQMVETKLKLICCDILDVLDKHLIPAANTGESKVFYYKMKGDYHRYLAEFATGNDRKEAAENSLVAYKAASDIAMTELPPTHPIRLGLALNFSVFYYEILNSPDRACRLAKAAFDDAIAELDTLSEESYKDSTLIMQLLRDNLTLWTSDMQGDGEEQNKEALQDVEDENQ
notes: 14-3-3ε full length with E92K; source: E. coli BL21 (DE3), purified (Ni Sepharose); mutant obtained from Mutagenex Inc
Consider B4, for which the “stoichiometry N” value in data set [3] stood at 2.

B5: 14-3-3ε FL K50E (natural protein, UniProt P62258 1-255, looked up)
chain: MDDREDLVYQAKLAEQAERYDEMVESMKKVAGMDVELTVEERNLLSVAYENVIGARRASWRIISSIEQKEENKGGEDKLKMIREYRQMVETELKLICCDILDVLDKHLIPAANTGESKVFYYKMKGDYHRYLAEFATGNDRKEAAENSLVAYKAASDIAMTELPPTHPIRLGLALNFSVFYYEILNSPDRACRLAKAAFDDAIAELDTLSEESYKDSTLIMQLLRDNLTLWTSDMQGDGEEQNKEALQDVEDENQ
notes: 14-3-3ε full length with K50E; source: E. coli BL21 (DE3), purified (Ni Sepharose); mutant obtained from Mutagenex Inc
For the molecule B5, the “stoichiometry N” value in data set [3] amounted to 2.

B6: 14-3-3ε FL D99K (natural protein, UniProt P62258 1-255, looked up)
chain: MDDREDLVYQAKLAEQAERYDEMVESMKKVAGMDVELTVEERNLLSVAYKNVIGARRASWRIISSIEQKEENKGGEDKLKMIREYRQMVETELKLICCKILDVLDKHLIPAANTGESKVFYYKMKGDYHRYLAEFATGNDRKEAAENSLVAYKAASDIAMTELPPTHPIRLGLALNFSVFYYEILNSPDRACRLAKAAFDDAIAELDTLSEESYKDSTLIMQLLRDNLTLWTSDMQGDGEEQNKEALQDVEDENQ
notes: 14-3-3ε full length with D99K; source: E. coli BL21 (DE3), purified (Ni Sepharose); mutant obtained from Mutagenex Inc
Turning to B6, the “stoichiometry N” value in data set [3] is 2.

B7: 14-3-3ε FL S187D (natural protein, UniProt P62258 1-255, looked up)
chain: MDDREDLVYQAKLAEQAERYDEMVESMKKVAGMDVELTVEERNLLSVAYKNVIGARRASWRIISSIEQKEENKGGEDKLKMIREYRQMVETELKLICCDILDVLDKHLIPAANTGESKVFYYKMKGDYHRYLAEFATGNDRKEAAENSLVAYKAASDIAMTELPPTHPIRLGLALNFSVFYYEILNDPDRACRLAKAAFDDAIAELDTLSEESYKDSTLIMQLLRDNLTLWTSDMQGDGEEQNKEALQDVEDENQ
notes: 14-3-3ε full length with S187D; source: E. coli BL21 (DE3), purified (Ni Sepharose); mutant obtained from Mutagenex Inc
Regarding B7, in data set [3], the “stoichiometry N” value is 2.

B8: 14-3-3ε FL S59E (natural protein, UniProt P62258 1-255, looked up)
chain: MDDREDLVYQAKLAEQAERYDEMVESMKKVAGMDVELTVEERNLLSVAYKNVIGARRAEWRIISSIEQKEENKGGEDKLKMIREYRQMVETELKLICCDILDVLDKHLIPAANTGESKVFYYKMKGDYHRYLAEFATGNDRKEAAENSLVAYKAASDIAMTELPPTHPIRLGLALNFSVFYYEILNSPDRACRLAKAAFDDAIAELDTLSEESYKDSTLIMQLLRDNLTLWTSDMQGDGEEQNKEALQDVEDENQ
notes: 14-3-3ε full length with S59E; source: E. coli BL21 (DE3), purified (Ni Sepharose); mutant obtained from Mutagenex Inc
With B8, in data set [3], the “stoichiometry N” value amounted to 2.

B9: 14-3-3ε C-terminal peptide (14-3-3ε_(234-255)) (peptide, UniProt P62258 234-255, looked up)
peptide: DMQGDGEEQNKEALQDVEDENQ
notes: 14-3-3ε, C-terminal tail, residues 234-255; also called non-acetylated peptide; C-terminal tail of 14-3-3ε; source: bought: Genosphere Biotechnologies (France)
As to B9, the dissociation constant Kd (in general, the constant that tells how readily two partners part at equilibrium) in data set [4] is 49 µM; in data set [1], 16 µM.
